Experimental data: patent US20200157217A1 (SYSTIMMUNE, published 2020)
Read-outs that look alike come from different tables or passages of the source.

Assays:
Cyno T cell line = assay: FACS, B cell culture supernatant on the cynomolgus T cell line (HSC-F per paragraph 87)
[1] = biological target: T1, human CD3 Delta/Epsilon Fc fusion protein (human, UniProt P04234 22-105; P07766 23-126); assay: Octet (bio-layer interferometry), bivalent kdis
T1 construct: Construct limits and Fc are not described; also called Human CD3 Delta-Epsilon Fc ("Knobs-into-hole"-KnH)

[2] = biological target: T2, human CD3 Gamma/Epsilon Fc fusion protein (human, UniProt P09693 23-116; P07766 23-126); assay: Octet (bio-layer interferometry), bivalent kdis; antigen printed 'Human δ/γ - Fc', taken as the Gamma/Epsilon Fc that paragraph 95 names for FIG. 8
T2 construct: Construct limits and Fc are not described; also called Gamma-Epsilon Fc (KnH)

[3] = biological target: T3, human CD3 (Delta, Gamma, Epsilon) on the human T cell line Jurkat or on purified human CD3+ T cells (human, UniProt P07766 23-207; P09693 23-182; P04234 22-171); assay: FACS, antibody titration on Jurkat cells
T3 construct: whole, on cells; On cells CD3 sits in the TCR complex

[4] = biological target: T2, human CD3 Gamma/Epsilon Fc fusion …; assay: Octet (bio-layer interferometry), bivalent kdis; antigen printed 'Epsilon-Gamma', taken as the human Gamma/Epsilon Fc that paragraph 95 names for FIG. 8
[5] = biological target: T3, human CD3 (Delta, Gamma, Epsilon) on …; assay: FACS, antibody titration on Jurkat cells; remark: listed apart in the source

T1 sequence (P04234 22-105, stated change not applied, chain 1 of 2): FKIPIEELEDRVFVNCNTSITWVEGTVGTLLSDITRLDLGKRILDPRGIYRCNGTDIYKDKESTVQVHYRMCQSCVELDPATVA
T1 sequence (P07766 23-126, stated change not applied, chain 2 of 2): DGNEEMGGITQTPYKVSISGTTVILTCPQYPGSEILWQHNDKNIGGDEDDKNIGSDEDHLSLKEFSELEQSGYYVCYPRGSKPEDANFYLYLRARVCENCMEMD
T2 sequence (P09693 23-116, chain 1 of 2): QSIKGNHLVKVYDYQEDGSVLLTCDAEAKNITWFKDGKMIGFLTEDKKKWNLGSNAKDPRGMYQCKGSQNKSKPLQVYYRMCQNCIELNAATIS
T2 sequence (P07766 23-126, chain 2 of 2): as the sequence (P07766 23-126, stated change not applied, chain 2 of 2) above
T3 sequence (P07766 23-207, stated change not applied, chain 1 of 3): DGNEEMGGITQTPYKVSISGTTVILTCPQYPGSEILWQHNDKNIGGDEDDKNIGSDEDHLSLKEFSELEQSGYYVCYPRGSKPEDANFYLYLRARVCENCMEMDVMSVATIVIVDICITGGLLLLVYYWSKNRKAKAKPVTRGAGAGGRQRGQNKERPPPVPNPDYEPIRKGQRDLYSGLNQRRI
T3 sequence (P09693 23-182, stated change not applied, chain 2 of 3): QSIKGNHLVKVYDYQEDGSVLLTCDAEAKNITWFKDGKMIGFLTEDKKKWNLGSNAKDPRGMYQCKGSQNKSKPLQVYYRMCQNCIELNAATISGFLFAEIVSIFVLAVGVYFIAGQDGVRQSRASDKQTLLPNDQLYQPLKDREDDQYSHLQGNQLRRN
T3 sequence (P04234 22-171, stated change not applied, chain 3 of 3): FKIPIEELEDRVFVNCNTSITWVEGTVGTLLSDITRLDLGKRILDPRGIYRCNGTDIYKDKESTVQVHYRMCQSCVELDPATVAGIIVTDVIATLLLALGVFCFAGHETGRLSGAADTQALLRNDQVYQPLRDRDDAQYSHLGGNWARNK

Row | Binder | koff [1] [s⁻¹] | koff [2] [s⁻¹] | further results
1 | 284A10 (antibody, V domains shown) VH: QSLEESGGRLVTPGTPLTLTCTVSGFTISTNAMSWVRQVPGKGLEWIGVITGRDITYYASWAKGRFTISKTSSTTVDLKMTSLTAEDSATYFCARDGGSSAITSNNIWGPGTLVTVSS VL: DVVMTQTPPSVSAAVGGTVTIKCQASESISSWLAWYQQKPGQPPKLLIYEASKLASGVPSRFSGSGSGTEFTLTISDLECADAATYYCQGYFYFISRTYVNSFGGGTEVEFK |  |  | MFI (Cyno T cell line): 615 MFI
2 | 299F6 chimeric rabbit/human IgG antibody (antibody, V domains shown) VH: QSLEESGGRLVTPGTPLTLTCTVSGFTISSNAMSWVRQAPGKGLEWIGVITGRDITYYANWAKGRFTISKTSSTTVDLKMTSLTAEDSATYFCARDGGSSAITSNNIWGPGTLVTVSS VL: DVVMTQTPSSVSAAVGGTVTINCQASESISSWLAWYQQKPGQPPKLLIYEASKLASGVPSRFSGSGSGTEFTLTISDLECADAATYYCQGYFYFISRSYVNAFGGGTEVVFKR | 0.00049 | 0.00045 | 
3 | 480A7 chimeric rabbit/human IgG antibody (antibody, V domains shown) VH: QSLEESGGRLVTPGTPLTLTCTVSGIDLSSNAMSWVRQAPGKGLEWIGVITGRDITYYASWAKGRFTISKTSSTTVDLKMTSLTAEDSATYFCARDGGSSAITSKNIWGPGTLVTVSS VL: DVVMTQTPASVEAAVGGTVTINCQASESISSWLAWYQQRPGQPPKLLIYEASKLASGVPSRFSGSGSGTEFTLTISDLECADAATYYCQGYFYFISRSYVNAFGGGTEVVFKR | 0.00066 |  | binding result [3]: binds; koff [4]: 0.0006 s⁻¹
4 | 295E9 (antibody, V domains shown) VH: QSLEESGGRLVTPGTPLTLTCTVSGIDLSSNAMSWVRQAPGKGLEWIGVITGRDINYYASWAKGRFTISKTSSTTVDLKMTSLTAEDSATYFCARDGGSSAITSKNIWGPGTLVTVSS VL: DVVMTQTPASVEAAVGGTVTINCQASESISSWLAWYQQRPGQPPKLLIYEASKLASGVPSRFKGSGSGTEFTLTISDLECADAATYYCQGYFYFISRSYVNAFGGGTEVVVK |  |  | MFI (Cyno T cell line): 549 MFI
5 | 295E9 chimeric rabbit/human IgG antibody (antibody, V domains shown) VH: QSLEESGGRLVTPGTPLTLTCTVSGIDLSSNAMSWVRQAPGKGLEWIGVITGRDINYYASWAKGRFTISKTSSTTVDLKMTSLTAEDSATYFCARDGGSSAITSKNIWGPGTLVTVSS VL: DVVMTQTPASVEAAVGGTVTINCQASESISSWLAWYQQRPGQPPKLLIYEASKLASGVPSRFKGSGSGTEFTLTISDLECADAATYYCQGYFYFISRSYVNAFGGGTEVVVKR | 0.0052 | 0.0052 | 
6 | 480C8 chimeric rabbit/human IgG antibody (antibody, V domains shown, also called 48008) VH: QSLEESGGRLVTPGTPLTLTCTVSGIDLSSNAMSWVRQAPGKGLEWIGVITGRDITYYASWAKGRFTISKTSSTTVDLKMTSLTAEDSATYFCARDGGSSAINSKNIWGQGTLVTVSS VL: DVVMTQTPSSVSAAVGGTVTINCQASESISSWLAWYQQKPGQPPKLLIYEASKLASGVPSRFSGSGSGTEFTLTISDLECADAATYYCQGYFYFISRTYVNAFGGGTEVEFKR | 0.00042 | 0.00054 | binding result [5]: binds
7 | 299F6 1.1 (antibody, human IgG1, kappa, V domains shown, sheet: mAb '299F6 1.1', format 'humanized'; also called 299F6 humanized) VH: EVQLVESGGGLVQPGGSLRLSCAASGFTISSNAMSWVRQAPGKGLEWIGVITGRDITYYANWAKGRFTISRDNSKNTLYLQMNSLRAEDTAVYYCARDGGSSAITSNNIWGQGTLVTVSS VL: DIQMTQSPSTLSASVGDRVTITCQASESISSWLAWYQQKPGKAPKLLIYEASKLASGVPSRFSGSGSGTEFTLTISSLQPDDFATYYCQGYFYFISRSYVNAFGGGTKVEIKR | 0.0006 |  | 

The next lines start with results.

Row | koff [1] [s⁻¹] | koff [2] [s⁻¹] | Binder | further results
8 | 0.0005 | 0.0013 | 284A10 chimeric rabbit/human IgG antibody (antibody, V domains shown) VH: QSLEESGGRLVTPGTPLTLTCTVSGFTISTNAMSWVRQVPGKGLEWIGVITGRDITYYASWAKGRFTISKTSSTTVDLKMTSLTAEDSATYFCARDGGSSAITSNNIWGPGTLVTVSS VL: DVVMTQTPPSVSAAVGGTVTIKCQASESISSWLAWYQQKPGQPPKLLIYEASKLASGVPSRFSGSGSGTEFTLTISDLECADAATYYCQGYFYFISRTYVNSFGGGTEVEFKR | 
9 | 0.0005 |  | 480C8 1.1 (antibody, human IgG1, kappa, V domains shown, sheet: mAb '480C8 1.1', format 'humanized'; also called 480C8 humanized) VH: EVQLVESGGGLVQPGGSLRLSCAASGIDLSSNAMSWVRQAPGKGLEWIGVITGRDITYYASWAKGRFTISRDNSKNTLYLQMNSLRAEDTAVYYCARDGGSSAINSKNIWGQGTLVTVSS VL: DIQMTQSPSTLSASVGDRVTITCQASESISSWLAWYQQKPGKAPKLLIYEASKLASGVPSRFSGSGSGTEFTLTISSLQPDDFATYYCQGYFYFISRTYVNAFGGGTKVEIKR | 
10 | 0.00053 |  | 284A10 1.1 (antibody, human IgG1, kappa, V domains shown, sheet: mAb '284A10 1.1', format 'humanized'; also called 284A10 humanized) VH: EVQLVESGGGLVQPGGSLRLSCAASGFTISTNAMSWVRQAPGKGLEWIGVITGRDITYYASWAKGRFTISRDNSKNTLYLQMNSLRAEDTAVYYCARDGGSSAITSNNIWGQGTLVTVSS VL: DVVMTQSPSTLSASVGDRVTINCQASESISSWLAWYQQKPGKAPKLLIYEASKLASGVPSRFSGSGSGTEFTLTISSLQPDDFATYYCQGYFYFISRTYVNSFGGGTKVEIKR | 
